# Patent publication US20260184782A1 (TWIST BIOSCIENCE, published 2026)
# T1: human TIGIT-Fc (human, UniProt Q495A1 22-141, limits assumed)
# T1 construct: not shown: Fc; not described
# T1 sequence (looked up): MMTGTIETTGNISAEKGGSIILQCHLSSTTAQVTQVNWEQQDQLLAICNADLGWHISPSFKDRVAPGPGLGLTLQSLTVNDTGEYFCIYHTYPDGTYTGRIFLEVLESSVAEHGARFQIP
# T2: TIGIT on PBMCs (UniProt Q495A1 22-244, limits assumed)
# T2 sequence (looked up): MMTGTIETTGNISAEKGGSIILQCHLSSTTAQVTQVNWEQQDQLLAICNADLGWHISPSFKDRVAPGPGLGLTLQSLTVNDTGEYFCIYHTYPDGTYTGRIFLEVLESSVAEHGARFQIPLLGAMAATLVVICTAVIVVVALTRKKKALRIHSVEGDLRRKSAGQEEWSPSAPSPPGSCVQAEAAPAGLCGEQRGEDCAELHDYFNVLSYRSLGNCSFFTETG
# T3: TIGIT (UniProt Q495A1 22-141, limits assumed)
# T3 construct: construct not described; also called T cell immunoreceptor with Ig and ITIM domains
# T3 sequence (looked up): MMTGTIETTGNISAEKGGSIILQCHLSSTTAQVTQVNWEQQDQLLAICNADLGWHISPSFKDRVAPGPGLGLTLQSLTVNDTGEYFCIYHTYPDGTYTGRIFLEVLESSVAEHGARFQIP
# T4: TIGIT (T cell immunoreceptor with Ig and ITIM domains) (UniProt Q495A1 22-141, limits assumed)
# T4 sequence (looked up): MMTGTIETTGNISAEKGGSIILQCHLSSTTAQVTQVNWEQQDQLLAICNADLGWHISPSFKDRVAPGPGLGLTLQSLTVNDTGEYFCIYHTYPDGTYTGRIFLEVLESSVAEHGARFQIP
# T5: TIGIT (UniProt Q495A1 22-141, limits assumed)
# T5 construct: also called T cell immunoreceptor with Ig and ITIM domains; hTIGIT
# T5 sequence (looked up): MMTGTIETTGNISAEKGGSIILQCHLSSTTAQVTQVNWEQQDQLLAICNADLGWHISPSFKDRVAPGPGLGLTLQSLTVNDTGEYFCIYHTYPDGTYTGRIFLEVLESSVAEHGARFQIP
# Columns and labels:
# human TIGIT-Fc [1] = molecular target: T1, human TIGIT-Fc; assay: CD155 competition ELISA, single point
# Procedure: (§1) TIGIT/CD155 inhibition of VHH-Fcs were assessed using an ELISA assay (Table 10B). Briefly, human TIGIT-Fc was coated on a plate & then incubated with VHH-Fcs and human CD155-biotin. Bound CD155-biotin was detected using a streptavidin-HRP conjugate visualized with TMB. Strong inhibitors from the single point screen were titrated to determine EC50 (Table 10C).
# TIGIT on PBMCs = molecular target: T2, TIGIT on PBMCs; assay: cell-based or functional assay
# human TIGIT-Fc [2] = molecular target: T1, human TIGIT-Fc; assay: CD155 competition ELISA, titration
# Procedure: as §1
# TIGIT [3] = molecular target: T3, TIGIT; assay: Carterra SPR, VHH-Fc
# [4] = molecular target: T4, TIGIT (T cell immunoreceptor with Ig …); assay: SPR (Carterra), VHH-Fc
# Source text: The Carterra SPR system was used to assess binding affinity and affinity distribution for VHH-Fc variants. […] Table 5A provides specific values for the VHH-Fc clones for ELISA, Protein A (mg/ml), and KD (nM). FIG. 7A and FIG. 7B depict TIGIT affinity distribution for the VHH libraries, over the 20-4000 affinity threshold (FIG. 7A; monovalent KD) and the 20-1000 affinity threshold (FIG. 7B; monovalent KD).
# [5] = molecular target: T4, TIGIT (T cell immunoreceptor with Ig …); assay: ELISA, VHH-Fc clone on TIGIT
# TIGIT [6] = molecular target: T5, TIGIT; assay: SPR (Carterra)
# TIGIT [7] = molecular target: T5, TIGIT; assay: TIGIT:CD155 blockade assay, competitor CD155
Binder,OD (450 nm) (human TIGIT-Fc [1]) [OD],T-cell activation EC50 (TIGIT on PBMCs) [nM],EC50 (human TIGIT-Fc [2]) [nM],further results
"Tiragolumab (antibody, V domains shown) VH: EVQLQQSGPGLVKPSQTLSLTCAISGDSVSSNSAAWNWIRQSPSRGLEWLGKTYYRFKWYSDYAVSVKGRITINPDTSKNQFSLQLNSVTPEDTAVFYCTRESTTYDLLAGPFDYWGQGTLVTVSS VL: not shown",0.0858,13.5,0.57,–
"TIGIT-SC41 (Fc fusion, VHH-Fc) VHH: EVQLVESGGGLVQPGGSLRLSCAASGMTTIGPMGWFRQAPGKEREFVASIAWGDGNTYYADSVKGRFTISADNSKNTAYLQMNSLKPEDTAVYYCVRGGSRTLWGQGTLVTVSS",0.0921,1.83,10,–
"TIGIT-SC58 (Fc fusion, VHH-Fc) VHH: EVQLVESGGGLVQPGGSLRLSCAASGFTLGYYVMGWFRQAPGKEREFVATINWSGTLTSYADSVKGRFTISADNSKNTAYLQMNSLKPEDTAVYYCARWVGPKYYFDYWGQGTLVTVSS",0.0846,2.08,0.303,–
"TIGIT-SC97 (Fc fusion, VHH-Fc) VHH: EVQLVESGGGLVQPGGSLRLSCAASGTAASFNPMGWFRQAPGKEREFVAAISWSGGSTNYADSVKGRFTISADNSKNTAYLQMNSLKPEDTAVYYCVTYSAYDFRNAWGQGTLVTVSS",0.111,7.11,0.971,–
"TIGIT-SC24 (Fc fusion, VHH-Fc) VHH: EVQLVESGGGLVQPGGSLRLSCAASGFTFDRSWMGWFRQAPGKEREVVASITSGGSTYYADSVKGRFTISADNSKNTAYLQMNSLKPEDTAVYYCAADVWYGSTWRNWGQGTLVTVSS",0.0781,7.53,0.423,–
"TIGIT-SC63 (Fc fusion, VHH-Fc) VHH: EVQLVESGGGLVQPGGSLRLSCAASGRAIGSYGMGWFRQAPGKEREFVATISVSGVYTYYADSVKGRFTISADNSKNTAYLQMNSLKPEDTAVYYCARATPGGVVPWGQGTLVTVSS",0.0781,88.1,135,–
"TIGIT-29-01 VHH-Fc (Fc fusion, also called 29-1) EVQLVESGGGLVQAGGSLRLSCAASGRTFSNYAMGWFRQAPGKEREFVAAITWSGTRTDYADSVKGRFTISADNAKNTVYLQMNSLKPEDTAVYYCAAAAWTIYEYDYWGQGTQVTVSSGGGGSEPKSSDKTHTCPPCPAPELLGGPSVFLFPPKPKDTLMISRTPEVTCVVVDVSHEDPEVKFNWYVDGVEVHNAKTKPREEQYNSTYRVVSVLTVLHQDWLNGKEYKCKVSNKALPAPIEKTISKAKGQPREPQVYTLPPSREEMTKNQVSLTCLVKGFYPSDIAVEWESNGQPENNYKTTPPVLDSDGSFFLYSLTVDKSRWQQGNVFSCSVMHEALHNHYTQKSLSLSPG",–,–,–,Kd (TIGIT [3]): 68 nM; kon (TIGIT [3]): 1e+09 M⁻¹ s⁻¹
"TIGIT-29-01 (Fc fusion, VHH-Fc; also called 29-1) EVQLVESGGGLVQAGGSLRLSCAASGRTFSNYAMGWFRQAPGKEREFVAAITWSGTRTDYADSVKGRFTISADNAKNTVYLQMNSLKPEDTAVYYCAAAAWTIYEYDYWGQGTQVTVSSGGGGSEPKSSDKTHTCPPCPAPELLGGPSVFLFPPKPKDTLMISRTPEVTCVVVDVSHEDPEVKFNWYVDGVEVHNAKTKPREEQYNSTYRVVSVLTVLHQDWLNGKEYKCKVSNKALPAPIEKTISKAKGQPREPQVYTLPPSREEMTKNQVSLTCLVKGFYPSDIAVEWESNGQPENNYKTTPPVLDSDGSFFLYSLTVDKSRWQQGNVFSCSVMHEALHNHYTQKSLSLSPG",–,–,–,Kd [4]: 68 nM; ELISA [5]: 10.4
"TIGIT-471-027 (antibody, V domains shown, Variable domains only) VH: EVQLLESGGGLVQPGGSLRLSCAASGFTFSNYGVSWVRQAPGKGLEWVSWISPHGALTYYADSVKGRFTISRDNSKNTLYLQMNSLKAEDTAVYYCAKGRRRFDYWGQGTLVTVSS VL: DIQMTQSPSSLSASVGDRVTITCRASQTISSYLNWYQQKPGKAPKLLIYENNNRPSGVPSRFSGSGSGTDFTLTISSLQPEDFATYYCQQSYIIPPTFGQGTNVEIK",–,–,–,Kd (TIGIT [6]): 60 nM; RU (TIGIT [6]): 57.5 RU; koff (TIGIT [6]): 0.00926 s⁻¹; kon (TIGIT [6]): 154000 M⁻¹ s⁻¹; IC50 (TIGIT [7]): 13.5 nM
"TIGIT-471-035 (antibody, V domains shown, Variable domains only) VH: EVQLLESGGGLVQPGGSLRLSCAASGFTFNAYPMTWVRQAPGKGLEWVSAITGSGGSTYYADSVKGRFTISRDNSKNTLYLQMNSLRAEDTAVYYCARVWRNHLDYWGQGTLVTVSS VL: DIQMTQSPSSLSASVGDRVTITCSGDKLGHTYTSWYQQKPGKAPKLLIYRASTLASGVPSRFSGSGSGTDFTLTISSLQPEDFATYYCQQGYTLPWTFGQGTKVEIK",–,–,–,Kd (TIGIT [6]): 395 nM; RU (TIGIT [6]): 93.7 RU; koff (TIGIT [6]): 0.0484 s⁻¹; kon (TIGIT [6]): 123000 M⁻¹ s⁻¹; IC50 (TIGIT [7]): 3.2 nM
